{
  "source": "paper PMC12496170",
  "biological_target": "Spike-Accum bioconjugate (Accum-bioconjugated Sp protein) (SARS-CoV-2) (UniProt P0DTC2)",
  "assay": "cryo-EM structure",
  "data": [
    {"substance": "Spike-Accum bioconjugate (Accum-bioconjugated Sp protein) (from UniProt P0DTC2 14-1213)", "values": [
      {"measurement": "stoichiometry N", "result": 3}
    ]}
  ]
}
